From ChEMBL document CHEMBL1212722, “Designer enzymes for glycosphingolipid synthesis by directed evolution” (Nat Chem Biol, 2009)
One block for each molecule: values may come before it.

Key:
Rhodococcus sp. [1] = experiment: Activity of Rhodococcus sp. M777 Endoglycoceramidase 2 containing wild type sequence E351S
Rhodococcus sp. [2] = experiment: Ratio of Kcat to Km of Activity of Rhodococcus sp. M777 Endoglycoceramidase 2 containing wild type sequence E351S
[3] = substrate: CCCCCCCCCCCCCC[C@@H](O)[C@@H](O)[C@@H](N)CO; experiment: Ratio of Kcat to Km of Activity of Rhodococcus sp. M777 Endoglycoceramidase 2 V101M K200R mutant
[4] = substrate: CC(=O)N[C@H]1[C@H](O[C@@H]2[C@H](O[C@]3(C(=O)O)C[C@H](O)[C@@H](NC(C)=O)[C@H]([C@@H](O)[C@@H](O)CO)O3)[C@@H](O)[C@H](O[C@H]3[C@H](O)[C@@H](O)[C@@H](F)O[C@@H]3CO)O[C@@H]2CO)O[C@H](CO)[C@H](O)[C@@H]1O[C@@H]1O[C@H](CO)[C@H](O)[C@H](O)[C@H]1O; experiment: (§1) Activity of Rhodococcus sp. M777 Endoglycoceramidase 2 R177H mutant
[5] = substrate: CCCCCCCCCCCCC/C=C/[C@@H](O)[C@@H](N)CO; experiment: as §1
[6] = substrate: CC(=O)N[C@H]1[C@H](O[C@@H]2[C@H](O[C@]3(C(=O)O)C[C@H](O)[C@@H](NC(C)=O)[C@H]([C@@H](O)[C@@H](O)CO)O3)[C@@H](O)[C@H](O[C@H]3[C@H](O)[C@@H](O)[C@@H](F)O[C@@H]3CO)O[C@@H]2CO)O[C@H](CO)[C@H](O)[C@@H]1O[C@@H]1O[C@H](CO)[C@H](O)[C@H](O)[C@H]1O; experiment: (§2) Ratio of Kcat to Km of Activity of Rhodococcus sp. M777 Endoglycoceramidase 2 R177H mutant
[7] = substrate: CCCCCCCCCCCCC/C=C/[C@@H](O)[C@@H](N)CO; experiment: as §2
[8] = substrate: CCCCCCCCCCCCCC[C@@H](O)[C@@H](O)[C@@H](N)CO; experiment: Ratio of Kcat to Km of Activity of Rhodococcus sp. M777 Endoglycoceramidase 2 N148S mutant

- Km (Rhodococcus sp. [1]): 770 µM
- kcat (Rhodococcus sp. [1]): 0.21 s⁻¹
- kcat/Km (Rhodococcus sp. [2]): 273 M⁻¹ s⁻¹
Molecule: CC(=O)N[C@H]1[C@H](O[C@@H]2[C@H](O[C@]3(C(=O)O)C[C@H](O)[C@@H](NC(C)=O)[C@H]([C@@H](O)[C@@H](O)CO)O3)[C@@H](O)[C@H](O[C@H]3[C@H](O)[C@@H](O)[C@@H](F)O[C@@H]3CO)O[C@@H]2CO)O[C@H](CO)[C@H](O)[C@@H]1O[C@@H]1O[C@H](CO)[C@H](O)[C@H](O)[C@H]1O

- Km (Rhodococcus sp. [1]): 410 µM
- kcat (Rhodococcus sp. [1]): 0.19 s⁻¹
- kcat/Km (Rhodococcus sp. [2]): 463 M⁻¹ s⁻¹
Molecule: CCCCCCCCCCCCC/C=C/[C@@H](O)[C@@H](N)CO

B1: Endoglycoceramidase II (Rhodococcus sp), A0ACD6B832 V101M,K200R (protein)
chain: MRRTRLVSLIVTGSLVFGGGVAAAQSSLAASGSGSGSGTALTPSYLKDDDGRSLILRGFNTASSAKSAPDGMPQFTEADLAREYADMGTNFVRFLISWRSMEPAPGVYDQQYLDRVEDRVGWYAERGYKVMLDMHQDVYSGAITPEGNSGNGAGAIGNGAPAWATYMDGLPVEPQPRWELYYIQPGVMRAFDNFWNTTGRHPELVEHYAKAWRAVADRFADNDAVVAYDLMNEPFGGSLQGPAFEAGPLAAMYQRTTDAIRQVDQDTWVCVAPQAIGVNQGLPSGLTKIDDPRAGQQRIAYCPHLYPLPLDIGDGHEGLARTLTDVTIDAWRANTAHTARVLGDVPIILGEFGLDTTLPGARDYIERVYGTAREMGAGVSYWSSDPGPWGPYLPDGTQTLLVDTLNKPYPRAVAGTPTEWSSTSDRLQLTIEPDAAITAPTEIYLPEAGFPGDVHVEGADVVGWDRQSRLLTVRTPADSGNVTVTVTPAA
- kcat/Km [3]: 3.1 M⁻¹ s⁻¹

B2: Endoglycoceramidase II (Rhodococcus sp), A0ACD6B832 R177H (protein)
chain: MRRTRLVSLIVTGSLVFGGGVAAAQSSLAASGSGSGSGTALTPSYLKDDDGRSLILRGFNTASSAKSAPDGMPQFTEADLAREYADMGTNFVRFLISWRSVEPAPGVYDQQYLDRVEDRVGWYAERGYKVMLDMHQDVYSGAITPEGNSGNGAGAIGNGAPAWATYMDGLPVEPQPHWELYYIQPGVMRAFDNFWNTTGKHPELVEHYAKAWRAVADRFADNDAVVAYDLMNEPFGGSLQGPAFEAGPLAAMYQRTTDAIRQVDQDTWVCVAPQAIGVNQGLPSGLTKIDDPRAGQQRIAYCPHLYPLPLDIGDGHEGLARTLTDVTIDAWRANTAHTARVLGDVPIILGEFGLDTTLPGARDYIERVYGTAREMGAGVSYWSSDPGPWGPYLPDGTQTLLVDTLNKPYPRAVAGTPTEWSSTSDRLQLTIEPDAAITAPTEIYLPEAGFPGDVHVEGADVVGWDRQSRLLTVRTPADSGNVTVTVTPAA
- Km [4]: 320 µM
- kcat [4]: 0.06 s⁻¹
- Km [5]: 170 µM
- kcat [5]: 0.06 s⁻¹
- kcat/Km [6]: 188 M⁻¹ s⁻¹
- kcat/Km [7]: 353 M⁻¹ s⁻¹

B3: Endoglycoceramidase II (Rhodococcus sp), A0ACD6B832 N148S (protein)
chain: MRRTRLVSLIVTGSLVFGGGVAAAQSSLAASGSGSGSGTALTPSYLKDDDGRSLILRGFNTASSAKSAPDGMPQFTEADLAREYADMGTNFVRFLISWRSVEPAPGVYDQQYLDRVEDRVGWYAERGYKVMLDMHQDVYSGAITPEGSSGNGAGAIGNGAPAWATYMDGLPVEPQPRWELYYIQPGVMRAFDNFWNTTGKHPELVEHYAKAWRAVADRFADNDAVVAYDLMNEPFGGSLQGPAFEAGPLAAMYQRTTDAIRQVDQDTWVCVAPQAIGVNQGLPSGLTKIDDPRAGQQRIAYCPHLYPLPLDIGDGHEGLARTLTDVTIDAWRANTAHTARVLGDVPIILGEFGLDTTLPGARDYIERVYGTAREMGAGVSYWSSDPGPWGPYLPDGTQTLLVDTLNKPYPRAVAGTPTEWSSTSDRLQLTIEPDAAITAPTEIYLPEAGFPGDVHVEGADVVGWDRQSRLLTVRTPADSGNVTVTVTPAA
- kcat/Km [8]: 2.1 M⁻¹ s⁻¹
